# Measured values: the RNAGym collection of RNA variant scans (doi:10.1073/pnas.2313332121)
# B1: TPR t1 (parent)
# chain: GACCAAUCUGCCCUCAGAGCUCGAGAACAUCUUCGGAUGCAGAGGAGGCAGGCUUCGGUGGCGCGAUAGCGCCAACGUCCUCAACCUCCAAUGCAUCCCACCACAUGAUGAUGCCUGAAGAGCCUUGGUUUUUUG
# Variants of: B1
# Test: polymerase ribozyme fitness, log enrichment relative to wild type (log ratio); higher = more active; in vitro selection for triplet polymerase activity
# How it was run: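 For each subunit of a heterodimeric triplet polymerase ribozyme, a mutant library was built by PCR and transcribed, then taken through a single in vitro selection round in triplicate. Selection involved annealing to a biotinylated primer, the partner subunit and triplets, incubation frozen at −7 °C, gel excision of extended constructs, capture on streptavidin beads and RT-PCR. Genotypes were retained after Illumina sequencing of inputs and outputs only with ≥10 input reads and ≥1 read in each output. Fitness is defined as the logarithm of a genotype's enrichment relative to wild-type enrichment, using inverse-variance-weighted averages across replicates, with the logarithm taken to base 2.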
row,Variant,polymerase ribozyme fitness (log ratio)
1,C73A C94A C102A,-2.96
2,A74C C101G U109A,-6.47
3,A74C U130A U131A U133A,-2.13
4,C73U A119G C123G,2.02
5,C72U G127C U132C,-1.97
6,A74C U96G,-1.28
7,C76U G107C A121G U126A,-4.6
8,C76U C88A U133G,-0.912
9,C73A C89U G110C,-5.15
10,C72U U96C,-1.2
11,C73U U125C,-2.06
12,C76U C94U C104U U131C,-0.407
13,C73G C123G,1.2
14,C76G U130A,-0.718
15,A75G G93C U116A,-4.1
16,C73U G93C G113A C124G,-1.29
17,C76A C94U G117C,-5.54
18,A75G C79U,-0.682
19,A74G C86U U109A U126G,-5.87
20,C76A A90G,-0.633
21,C72U G127C,-1.75
22,C72U G127U,-1.84
23,C76G C88G,-1.08
24,A74G A83C C114A C123G C124G,-0.429

row,Variant,polymerase ribozyme fitness (log ratio)
1,C73A C97A,-4.87
2,C73A A90U,-3.12
3,C73G C82A A90U C123G,-0.559
4,C72U U96C G135U,-1.42
5,C76A A83C,-0.201
6,C73U C79G A119G C123A,-0.377
7,C73U C123U,0.98
8,C73U C123G,2.14
9,A75U G113A G127C,-2.56
10,A74C C94U,-0.6
11,A74G C102U A119U,-0.954
12,C72U U78C,-0.528
13,C73A C101G,-1.26
14,C73A C101U,0.2
15,C76A C98U,-1.53
16,C76A G127U,-2.17
17,A74C G113U U133A,-3.26
18,A74G A95U,-0.0785
19,C76A C94A C101A,-2.64
20,C73G C89A C104U A119U,-3.03
21,C73G U112A G117U,-2.94
22,C72U U130A,-1.42
23,C72U U130G,-0.892
24,C72U U130C,-0.237

row,Variant,polymerase ribozyme fitness (log ratio)
1,C73A C86A,-0.668
2,A74U C114A U129A,-3.53
3,C72U G117C G120U U131G,-5.53
4,C76G A118G G122U,-0.593
5,C73U A84G,-0.874
6,C73U C79U U87A,-0.627
7,C72U U109G G113A,-5.96
8,C73G A74U C89U,-2.48
9,C72U U78A A90U C123U,-1.05
10,C72U U96G U106A G113A,-2.89
11,C73U C99A C115A U125G,-6.08
12,A74G U87A G117C G120A A121U U129A,-6.07
13,C76A C102A,-3.94
14,C73A U87G U129A,-1.12
15,C73U A83G,-1.56
16,C73A C99U A118G,-3
17,C73U C79A A95G,-0.961
18,C73A A95G C104A G110U,-3.5
19,C72U U81C U116A,-3.5
20,C73G A95C,-2.83
21,A75G G128A,-1.5
22,C73A U109G,-4.56
23,C73A U130C,-0.0885
24,C76G G122A,-1.36

row,Variant,polymerase ribozyme fitness (log ratio)
1,A74C A75U G110A,-1.52
2,C73U C86U U96C A119G U131C,0.735
3,C73A U112A A121U U125A,1.73
4,C73U C85A G120U,-0.527
5,C72U U78C C86G G127C,-2.25
6,C72U G113U,-2.87
7,C73G C104G A121G,-5.73
8,C73G A95C C124U G128U U129C,-1.71
9,C76A C85G,-1.03
10,C73A U87C A105U,-1.35
11,A74G C79A C82A U112A,-2.42
12,A74U G120A C124G,2
13,C73G C80U,-1.77
14,C73G C89G U131A,-2.56
15,C73A G127C,-1.98
16,A74C A100C,-1.06
17,C73A G93A,-1.04
18,C73U A103U,-4.35
19,C73G A121C G122A,0.495
20,C76G A91U U132A,-1.52
21,C76A C102A C123A,-3.55
22,A74U C123U,0.766
23,C73A C88A G117U,-4.07
24,A74U A84U U129G,-1.9

row,Variant,polymerase ribozyme fitness (log ratio)
1,A74C U92C G127A,-2.3
2,C73U C104A,-1.22
3,C76U A121C,2.01
4,C76U A121U,2.22
5,A74C C97U G120A G122A,-1.46
6,C73A U133A,0.106
7,C73A C82G G117U U130C,-0.953
8,C73G C82A U92A,-4.06
9,C73U A83U G110A G128U,-4.9
10,C73A C79G U112A,-0.66
11,A74C C102G U112C,-4.5
12,C72U U92G,-2.59
13,A74G A103G G117U U133G,-6.53
14,C73A G107A,-5.21
15,A74U G120A,0.0292
16,A74G A91G G93C G120C,-2.64
17,C73A A74U C85U C94U C115U,-3.24
18,C72U U96A A118G,-1.7
19,C73U U87A A91U U112A U116G,-4.55
20,C76A C79U A90U A119C G120U,-1.56
21,C73A U131G,-0.242
22,A75G G120A A121C,0.562
23,C76G U78A,0.247
24,C73G A105C,-3.81

row,Variant,polymerase ribozyme fitness (log ratio)
1,C73G G117U,-3.09
2,C73G G117C,-3.91
3,C73G G117A,-0.876
4,C73U A84C U92G U112A,-2.54
5,C76U A83U,-0.0435
6,A74U C82U G120A G122U,-0.0704
7,C73G A100C,-1.47
8,C72U U78C A83C,-0.433
9,C73G A91G,-2.69
10,C73G A111C,-0.327
11,A74U C98A C99A,-6.51
12,A74G G110A A111G,0.0395
13,A74C C80A C101G C123A,-4.26
14,A74U G128C,-2.66
15,C73A C102U,-0.943
16,C73G C85U G117C U133A,-6.98
17,A74C A83C,-0.243
18,C73U C114A,-1.19
19,C73U C114U,-1.31
20,C73U G77C G93A C124U U126G,-1.68
21,C73G U78A,-0.494
22,C73U U92G,-2.88
23,A74G G120C,0.921
24,C73U A121G,2.17

row,Variant,polymerase ribozyme fitness (log ratio)
1,C76G C114U,-2.74
2,A75G C123U U125G U126A,0.149
3,A75G C98U,-0.624
4,A75G A121G,1.42
5,C73U U130A U131A,-0.703
6,C73U G120U,0.0471
7,A74C C82A G113U C124A G128C U131G,-4.12
8,C72U U112G,0.605
9,C72U G122A,-0.576
10,C73G A91C G127A,-3.34
11,C73A U92A C104U,-2.28
12,A74U G110A C115U,-6.32
13,C73U C94U,-0.847
14,C73U C94A C104U G117U,-3.3
15,C73U C80G A118U,-4.47
16,C73U A95C U130A,-1.26
17,C73U G77A G120A,0.241
18,A74G C101A,-0.767
19,C73A C86U U87A G117A U132A,-3.67
20,C76A A118G,-0.854
21,C73G U112A,-0.766
22,C73G G93U,-3.13
23,C73G G93A,-1.13
